This is an account of results in article PMC5599542.

One experiment deals with GRB2 (UniProt P62993). The experiment in a line: FLAG affinity purification, Western blot. As to conditions: reference: wild type. In general terms: Immunoblotting shows a protein as a band on a membrane.
In another experiment the target is PTPN11/SHP2 (UniProt Q06124). As to the kind of experiment: FLAG affinity purification, Western blot. As to conditions: reference: wild type; sites Y241,Y263.

In the case of MPZL1 (PZR) (from UniProt O95297) Y241F, in the experiment with GRB2 (sites Y241), the “binding against the reference” value was “weaker”.
For the substance “MPZL1 (PZR) (from UniProt O95297) Y241F/Y263F”, the “binding against the reference” value in the experiment with PTPN11/SHP2 is “lost”.
Regarding MPZL1 (PZR) (from UniProt O95297) Y263F, the “binding against the reference” value with GRB2 (sites Y263) is reported as “weaker”.
